For experiment [1], the target named is IMP, endogenous (D. melanogaster (endogenous in embryos)). As to the kind of experiment: co-IP.
In experiment [2] the target is T1, ME31B, endogenous (D. melanogaster (endogenous in embryos)) (UniProt P23128).
T1 sequence: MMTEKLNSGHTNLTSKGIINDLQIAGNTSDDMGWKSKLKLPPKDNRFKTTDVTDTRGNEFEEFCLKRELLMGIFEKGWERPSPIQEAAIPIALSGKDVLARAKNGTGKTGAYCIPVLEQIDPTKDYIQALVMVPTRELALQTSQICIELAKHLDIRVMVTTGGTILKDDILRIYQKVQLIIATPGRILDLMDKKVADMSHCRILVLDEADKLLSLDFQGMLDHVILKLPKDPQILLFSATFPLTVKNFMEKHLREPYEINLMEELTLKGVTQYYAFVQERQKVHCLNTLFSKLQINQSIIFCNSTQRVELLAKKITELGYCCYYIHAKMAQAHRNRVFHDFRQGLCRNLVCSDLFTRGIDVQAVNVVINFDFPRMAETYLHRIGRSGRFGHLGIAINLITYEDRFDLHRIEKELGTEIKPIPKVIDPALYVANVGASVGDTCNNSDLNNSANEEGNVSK
As to the kind of experiment: co-IP.

B1: anti-IMP (P054) synthetic Fab (Fab, V domains shown)
VH: EVQLVESGGGLVQPGGSLRLSCAASGFNLSYSYIHWVRQAPGKGLEWVASIYSYYSYTYYADSVKGRFTISADTSKNTAYLQMNSLRAEDTAVYYCARWWVVYGMDYWGQGTLVTVSS
VL: DIQMTQSPSSLSASVGDRVTITCRASQSVSSAVAWYQQKPGKAPKLLIYSASSLYSGVPSRFSGSRSGTDFTLTISSLQPEDFATYYCQQHWWLITFGQGTKVEIK
As for B1, the percent of IP input precipitated in experiment [1] was 1 to 10%.

B2: anti-ME31B (P012) synthetic Fab (Fab, V domains shown)
VH: EVQLVESGGGLVQPGGSLRLSCAASGFNLSYSSIHWVRQAPGKGLEWVASIYSYYGYTYYADSVKGRFTISADTSKNTAYLQMNSLRAEDTAVYYCARWYWYGWALDYWGQGTLVTVSS
VL: DIQMTQSPSSLSASVGDRVTITCRASQSVSSAVAWYQQKPGKAPKLLIYSASSLYSGVPSRFSGSRSGTDFTLTISSLQPEDFATYYCQQGPYPYYGLITFGQGTKVEIK
B2 returned a percent of IP input precipitated in experiment [2] of less than 1%.

Source of the values: PMC4793217.
